Reference: patent US20260226138A1, “COMBINATION TUMOR THERAPY WITH THROMBOSIS INITIATION AND PLATELET RECRUITMENT” (Wisconsin Alumni Research Foundation, priority 2022, published 2026)

Columns and labels:
[1] = target: integrin receptors on the angiogenic blood vessels in the tumor site; experiment: cell-based or functional assay
CT26 tumor-bearing mice [2] = experiment: Coagulation after p.t. injection of lower dose, CT26 tumors; format: in vivo; conditions: 0.4 mg/kg
Method: (§1) The coagulation initiation capability of tTF-RGD was investigated by treating CT26 tumor-bearing mice with 1.25 mg/kg of BSA, tTF, and tTF-RGD via intratumoral injection. Twenty-four hours later, the tumors were collected and subjected to H&E staining. To characterize the coagulation triggered by a lower dose of the tTF-RGD, 0.4 mg/kg of BSA, tTF, and tTF-RGD were administered into CT26 tumor-bearing mice via p.t. injection. Furthermore, mice bearing CT26 tumors were also treated with BSA, tTF and tTF-RGD (1.25 mg/kg) via i.v. injection every other day for 3 times in total. Twenty-four hours post injection of the last dose, the tumors and other major organs were collected and subjected to H&E staining.

CT26 tumor-bearing mice [3] = experiment: Coagulation initiation after intratumoral injection, CT26 tumors; format: in vivo
Method: as §1

CT26 tumors [4] = test system: CT26 tumors; parameters: species or system mice; conditions: mouse, in vivo, iv, 1.25 mg/kg
Method: Tumor vasculature-targeting and coagulation initiating ability tTF-RGD: The tumor vasculature-targeting ability of tTF-RGD was investigated using IVIS. Briefly, tTF and tTF-RGD were labeled with sulfo-Cy5.5-NHS ester and dialyzed against PBS at 4° C. to remove unreacted dyes. Balb/C mice (6-8 weeks, male) were inoculated with 1×10^6 CT26 cells. When the tumor volumes reached 100-150 mm^3 (calculated as length×width^2×0.5), Cy5.5-labeled tTF or tTF-RGD were injected at the dose of 1.25 mg/kg via i.v. route to mice bearing CT26 tumors. […] At 24 h, the mice were euthanized, and tumors were collected and visualized ex vivo. The fluorescence was analyzed using Living Image Software v.4.3.1 (Perkin Elmer).

CT26 tumors [5] = experiment: Recruitment of P-aPD-1 to tumor, i.v. injected protein (systemic strategy); format: in vivo, mice
Method: (§2) Recruitment of P-aPD-1 by tTF-RGD treatment: The recruitment of P-aPD-1 to tumor sites by tTF-RGD-initiated coagulation was studied using IVIS. P-aPD-1 was reacted with sulfo-Cy5.5-NHS ester at room temperature for 1 h and washed three times with PBS to remove unreacted dyes. For the local treating strategy, BSA, tTF, and tTF-RGD were given at the dose of 0.4 mg/kg via p.t. injection to mice bearing CT26 tumors, followed by i.v. injection of approximately 1×10^8 P-aPD-1 (aPD-1:1 mg/kg). For the systemic treatment strategy, BSA, tTF, and tTF-RGD were given at the dose 1.25 mg/kg via i.v. injection to mice bearing CT26 tumors, followed by i.v. injection of approximately 1×10^8 P-aPD-1 (aPD-1:1 mg/kg). […] At 24 h, the mice were euthanized, and tumors were collected and visualized ex vivo.

CT26 subcutaneous tumor [6] = experiment: Anti-tumor efficacy, subcutaneous CT26 model, systemic treating strategy; format: in vivo, Balb/C mice; conditions: tTF or tTF-RGD i.v. 1.25 mg/kg, aPD-1 0.3 mg/kg i.v., 3 doses
Method: (§3) Anti-tumor efficacy of tTF-RGD+P-aPD-1: To establish a subcutaneous CT26 colon cancer model, Balb/C mice (6-8 weeks, male) were subcutaneously inoculated with 1×10^6 CT26 cells on the right flank. When the tumor volume reached100-150 mm^3, the mice were received different treatments, including saline, aPD-1, tTF-RGD, P-aPD-1, tTF+P-aPD-1 and tTF-RGD+P-aPD-1. For the local treating strategy, tTF or tTF-RGD (0.4 mg/kg) was firstly given by p.t. injection. Half an hour later, P-aPD-1 was administered via i.v. injection at the dose of 1 mg/kg. The treatment was conducted every other day for 3 times in total. For the systemic treating strategy, tTF or tTF-RGD (1.25 mg/kg) was first given by i.v. injection. One hour later, P-aPD-1 was administered via i.v. injection at the dose of 0.3 mg/kg. The treatment was conducted every other day for 3 times in total. The antibodies used in other treatment groups are also given at an equivalent dose. The tumor growth (calculated as: length×width^2×0.5) and body weight were monitored every other day. Mice were euthanized once the tumor volume exceeded 2 cm^3.

CT26 tumors [7] = experiment: Tumor coagulation by Cy5.5-labeled fibrinogen accumulation (IVIS); format: in vivo, mice
Method: To assess the tumor vasculature-coagulation triggered by tTF-RGD, fibrinogen was labeled with sulfo-Cy5.5-NHS ester and dialyzed against PBS to remove unreacted dyes. BSA, tTF or tTF-RGD were injected at the dose of 1.25 mg/kg via i.v. route to mice bearing CT26 tumors, followed by i.v. injection of 1 nmol of fibrinogen. […] At 24 h, the mice were euthanized, and tumors were collected and visualized ex vivo.

CT26 tumor-bearing mice [8] = experiment: Coagulation after three i.v. doses, H&E of tumors and major organs; format: in vivo
Method: as §1

CT26 subcutaneous tumor [9] = experiment: Anti-tumor efficacy, subcutaneous CT26 model, local treating strategy; format: in vivo, Balb/C mice; conditions: tTF or tTF-RGD p.t. 0.4 mg/kg, aPD-1 1 mg/kg i.v., 3 doses
Method: as §3

CT26 tumors [10] = experiment: Recruitment of P-aPD-1 to tumor, p.t. injected protein (local strategy); format: in vivo, mice
Method: as §2

[11] = test system: FX (proteolytic activation of FX by FVIIa); experiment: FX activation assay; format: biochemical; conditions: in the presence of factor VII (a) and Ca2+ ions
Method: The FX activation activity was tested using a modified procedure based on a previous report in the art. Briefly, to each well of a black 96-well plate was added 100 μL of BSA, tTF, and tTF-RGD with different concentrations in Tris-buffered saline containing 0.1% BSA. […] After 5 min of incubation at room temperature, FX (Haematologic Technologies, Inc.) was added to reach a final concentration of 30 nM and reacted for an additional 5 min. The reaction was quenched by addition of 20 μL of 100 mmol/L EDTA solution before 10 μL of 6-amino-1-naphthalenesulfonamide-based (ANSN) fluorogenic substrate (10 mM) (Haematologic Technologies, Inc.) was added to the mixture. Three minutes later, the fluorescence intensities were measured with a microplate reader (excitation=352 nm, emission=470 nm).

PDX breast tumors = experiment: Recruitment of DiR-loaded PM-NP to PDX tumor (IVIS); format: in vivo, mice; conditions: ex vivo, 24 h, i.v. 1.25 mg/kg
Method: Recruitment of PM-NP by tTF-RGD-triggered coagulation: The recruitment of PM-NP to tumor sites by tTF-RGD-initiated coagulation was studied using IVIS. NPs were loaded with DiR and coated with platelet membranes. The PM-NP was washed three times with PBS to remove unreacted dyes. tTF or tTF-RGD was given at the dose of 1.25 mg/kg via i.v. injection to mice bearing PDX breast tumors. One hour later, 2 mg of NPs and PM-NPs were administered via i.v. injection. […] At 24 h, the mice were euthanized, and tumors were collected and visualized ex vivo.

[12] = test system: TM00096 human breast tumor PDX; experiment: Coagulation in PDX tumors, H&E staining; format: in vivo, mice; conditions: i.v. injection with PM-NP, 24 h
Source text: Establishment of the PDX model: To establish the PDX model, TM00096 tumor samples were first propagated on Rag2-II2rg double knockout immunodeficient mice (R2G2® mice, 6-8 weeks, female) and then passaged to nude mice (6-8 weeks, female). Briefly, tumor tissues from R2G2® mice with TM00096 tumors were cut into small pieces, dispersed in the 1:1 mixture of DMEM medium and Matrigel® supplemented with FBS and antibiotics. The tiny tumor tissues were mixed well and placed on ice packs before being injected into the right flank of the nude mice using an 18-gauge needle (100 μL/mouse).
Next, it was determined if tTF-RGD can recruit PM-NP to tumor sites. To validate the translational potential of our treatment strategy, a clinically relevant PDX mouse model was established (FIG. 7C). TM00096 human breast tumor tissues were implanted on the flank of the immunodeficient mice. To affirm that systemic injection of tTF-RGD can initiate the tumor-selective coagulation on the PDX model, tTF+PM-NP or tTF-RGD+PM-NP were administered to the mice via i.v. injection as described above in the CT26-bearing mice model. Twenty-four hours later, the PDX tumors were collected and subjected to H&E staining. […] In order to visualize the tumor-selective accumulation of PM-NP, DiR dyes were encapsulated into NPs, which were further coated with platelet membranes. […]

Molecule: truncated tissue factor-Arg-Gly-Asp (RGD) fusion protein (tTF-RGD) (from UniProt P13726 33-250)
- mean fluorescence intensity (MFI) of tumor tissues ex vivo, 24 h after i.v. injection of Cy5.5-labeled protein, against the tTF group [1]: 1.62 fold

B1: tTF-RGD: fused protein of truncated tissue factor (extracellular domain of TF) and RGD motif; SEQ ID NO: 9 (protein)
chain: SGTTNTVAAYNLTWKSTNFKTILEWEPKPVNQVYTVQISTKSGDWKSKCFYTTDTECDLTDEIVKDVKQTYLARVFSYPAGNVESTGSAGEPLYENSPEFTPYLETNLGQPTIQSFEQVGTKVNVTVEDERTLVRRNNTFLSLRDVFGKDLIYTLYYWKSSSSGKKTAKTNTNEFLIDVDKGENYCFSVQAVIPSRTVNRKSTDSPVECMGQEKGEFRRGD
- coagulation / hemorrhage in tumors (CT26 tumor-bearing mice [2]): effectively triggered obvious coagulation without severe hemorrhage
- hemorrhage and thrombus formation in tumors (CT26 tumor-bearing mice [3]; 1.25 mg/kg, data not shown): significant hemorrhage and thrombus formation
- coagulation in tumors (CT26 tumor-bearing mice [3]; 24 h post-injection): severe coagulation
- mean fluorescence intensity (MFI) of tumor tissues relative to tTF group (CT26 tumors [4]): 1.62 fold
- tumor targeting ability, fluorescence signals at tumor site (CT26 tumors [4]): much stronger tumor targeting ability than tTF
- accumulation of P-aPD-1 in tumor tissues, increase versus tTF group (CT26 tumors [5]; ex vivo, 24 h, protein i.v. 1.25 mg/kg): 1.89 fold
- Rhodamine B-labeled P-aPD-1 fluorescence in resected tumors compared to BSA and tTF (CT26 tumors [5]; i.v. injection): More fluorescence signals
- distribution of Cy5.5-labeled P-aPD-1 at tumor sites (imaging) compared to tTF and BSA (CT26 tumors [5]; protein i.v. 1.25 mg/kg then i.v. P-aPD-1, time-course): increased distribution of P-aPD-1 at the tumor sites
- median survival time (CT26 subcutaneous tumor [6]): 27 days
- accumulation of Cy5.5-fibrinogen in tumors (CT26 tumors [7]; 24 h post i.v. injections, protein 1.25 mg/kg): strong signals
- MFI of Cy5.5-fibrinogen in tumors, increase compared with tTF group (CT26 tumors [7]; ex vivo, 24 h, i.v. 1.25 mg/kg): 2.37 fold
- coagulation in tumor tissues (H&E) (CT26 tumor-bearing mice [8]; 24 h after three doses of i.v. injection, 1.25 mg/kg): initiated apparent coagulation
- hemorrhage or thrombus in other major organs (H&E) (CT26 tumor-bearing mice [8]; after 3 doses of i.v. injection): no obvious hemorrhage or thrombus in other major organs
- hemorrhage / thrombosis (CT26 tumor-bearing mice [8]; i.v. 1.25 mg/kg every other day for three times, data not shown): did not induce severe hemorrhage but could trigger thrombosis
- median survival time (CT26 subcutaneous tumor [9]): 30 days
- tumor growth inhibition (CT26 subcutaneous tumor [9]): negligible tumor-inhibiting activity
- fluorescence signals of P-aPD-1 in tumor tissues, increase versus tTF group (CT26 tumors [10]; ex vivo, 24 h, protein p.t. 0.4 mg/kg): 1.87 fold
- Rhodamine B-labeled P-aPD-1 fluorescence in resected tumors compared to BSA and tTF (CT26 tumors [10]; p.t. injection): More fluorescence signals
- accumulation of Cy5.5-labeled P-aPD-1 at tumor site (imaging) (CT26 tumors [10]; protein p.t. 0.4 mg/kg then i.v. P-aPD-1, from 4 h post injection): strong tendency to accumulate at the tumor site
- FX activation activity [11]: dose-dependent FX activation activity
- MFI of tumors, accumulation of PM-NP, increase versus tTF treatment (PDX breast tumors): 5.05 fold
- coagulation in PDX tumor tissues (H&E) [12]: could induce coagulation in PDX tumor tissues without severe hemorrhage
